Results reported in US20230184768A1 (MESO SCALE TECHNOLOGIES, published 2023).

Molecular target: T1, labeled ACE2 (angiotensin-converting enzyme 2) (human, UniProt Q9BYF1 18-740)
T1 construct: also called ACE2 detection reagent
Test: labeled ACE2 on immobilized Mixed Panel, ECL

T1 sequence (Q9BYF1 18-740 limits assumed): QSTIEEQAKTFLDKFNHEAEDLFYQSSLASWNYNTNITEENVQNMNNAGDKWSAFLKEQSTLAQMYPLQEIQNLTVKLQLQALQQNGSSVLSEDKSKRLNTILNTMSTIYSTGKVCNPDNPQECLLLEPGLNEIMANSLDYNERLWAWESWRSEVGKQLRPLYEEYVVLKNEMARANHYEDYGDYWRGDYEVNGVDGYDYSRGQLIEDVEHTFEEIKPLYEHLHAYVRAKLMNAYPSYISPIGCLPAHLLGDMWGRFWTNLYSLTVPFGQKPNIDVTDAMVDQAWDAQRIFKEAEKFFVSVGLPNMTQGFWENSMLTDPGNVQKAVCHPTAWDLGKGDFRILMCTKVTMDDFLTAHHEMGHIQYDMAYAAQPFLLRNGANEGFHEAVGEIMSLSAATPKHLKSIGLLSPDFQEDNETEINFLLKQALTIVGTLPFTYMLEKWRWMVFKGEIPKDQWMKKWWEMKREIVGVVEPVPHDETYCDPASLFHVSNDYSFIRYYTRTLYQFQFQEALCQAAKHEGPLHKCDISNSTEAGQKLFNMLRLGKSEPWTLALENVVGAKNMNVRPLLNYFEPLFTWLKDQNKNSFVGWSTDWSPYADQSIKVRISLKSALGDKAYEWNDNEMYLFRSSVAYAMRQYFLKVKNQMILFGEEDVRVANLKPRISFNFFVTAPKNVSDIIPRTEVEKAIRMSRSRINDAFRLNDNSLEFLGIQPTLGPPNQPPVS

B1: HCoV-OC43 S protein (other)
chain: AVIGDLKCTSDNINDKDTGPPPISTDTVDVTNGLGTYYVLDRVYLNTTLFLNGYYPTSGSTYRNMALKGSVLLSRLWFKPPFLSDFINGIFAKVKNTKVIKDRVMYSEFPAITIGSTFVNTSYSVVVQPRTINSTQDGDNKLQGLLEVSVCQYNMCEYPQTICHPNLGNHRKELWHLDTGVVSCLYKRNFTYDVNADYLYFHFYQEGGTFYAYFTDTGVVTKFLFNVYLGMALSHYYVMPLTCNSKLTLEYWVTPLTSRQYLLAFNQDGIIFNAEDCMSDFMSEIKCKTQSIAPPTGVYELNGYTVQPIADVYRRKPNLPNCNIEAWLNDKSVPSPLNWERKTFSNCNFNMSSLMSFIQADSFTCNNIDAAKIYGMCFSSITIDKFAIPNGRKVDLQLGNLGYLQSFNYRIDTTATSCQLYYNLPAANVSVSRFNPSTWNKRFGFIEDSVFKPRPAGVLTNHDVVYAQHCFKAPKNFCPCKLNGSCVGSGPGKNNGIGTCPAGTNYLTCDNLCTPDPITFTGTYKCPQTKSLVGIGEHCSGLAVKSDYCGGNSCTCRPQAFLGWSADSCLQGDKCNIFANFILHDVNSGLTCSTDLQKANTDIILGVCVNYDLYGILGQGIFVEVNATYYNSWQNLLYDSNGNLYGFRDYIINRTFMIRSCYSGRVSAAFHANSSEPALLFRNIKCNYVFNNSLTRQLQPINYFDSYLGCVVNAYNSTAISVQTCDLTVGSGYCVDYSKNRRSRGAITTGYRFTNFEPFTVNSVNDSLEPVGGLYEIQIPSEFTIGNMVEFIQTSSPKVTIDCAAFVCGDYAACKSQLVEYGSFCDNINAILTEVNELLDTTQLQVANSLMNGVTLSTKLKDGVNFNVDDINFSPVLGCLGSECSKASSRSAIEDLLFDKVKLSDVGFVEAYNNCTGGAEIRDLICVQSYKGIKVLPPLLSENQISGYTLAATSASLFPPWTAAAGVPFYLNVQYRINGLGVTMDVLSQNQKLIANAFNNALYAIQEGFDATNSALVKIQAVVNANAEALNNLLQQLSNRFGAISASLQEILSRLDALEAEAQIDRLINGRLTALNAYVSQQLSDSTLVKFSAAQAMEKVNECVKSQSSRINFCGNGNHIISLVQNAPYGLYFIHFSYVPTKYVTARVSPGLCIAGDRGIAPKSGYFVNVNNTWMYTGSGYYYPEPITENNVVVMSTCAVNYTKAPYVMLNTSIPNLPDFKEELDQWFKNQTSVAPDLSLDYINVTFLDLQVEMNRLQEAIKVLNQSYINLKDIGTYE
notes: also called HCoV-OC43 spike protein
binding result: no binding
